Consider two molecules from article PMC6158738.

The target in data set [1] is PfuHAN_DND E562A (Pyrococcus furiosus). Briefly: SEC. In general terms: SEC sorts molecules by how far they enter the pores of the column.
Data set [2] deals with T1, PfuHAN-D3 (Pyrococcus furiosus, UniProt Q8U3Q7 201-740).
T1 sequence: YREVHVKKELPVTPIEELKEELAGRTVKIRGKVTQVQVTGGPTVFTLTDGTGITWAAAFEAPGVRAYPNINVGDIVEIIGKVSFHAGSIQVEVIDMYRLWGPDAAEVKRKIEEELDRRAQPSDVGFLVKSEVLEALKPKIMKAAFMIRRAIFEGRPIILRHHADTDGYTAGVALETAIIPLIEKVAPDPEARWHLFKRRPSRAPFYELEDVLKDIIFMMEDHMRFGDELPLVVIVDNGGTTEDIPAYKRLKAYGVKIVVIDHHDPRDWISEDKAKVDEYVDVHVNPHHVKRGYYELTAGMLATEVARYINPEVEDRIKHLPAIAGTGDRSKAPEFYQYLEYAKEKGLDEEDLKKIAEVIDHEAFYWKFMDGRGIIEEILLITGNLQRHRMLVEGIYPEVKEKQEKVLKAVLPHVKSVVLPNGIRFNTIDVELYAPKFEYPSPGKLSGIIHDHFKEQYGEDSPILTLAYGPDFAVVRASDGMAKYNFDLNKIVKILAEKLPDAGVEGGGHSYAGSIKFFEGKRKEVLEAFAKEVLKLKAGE
In words: EMSA.

The target in data set [3] is T2, PfuHAN-D5 (Pyrococcus furiosus, UniProt Q8U3Q7 50-740).
T2 sequence: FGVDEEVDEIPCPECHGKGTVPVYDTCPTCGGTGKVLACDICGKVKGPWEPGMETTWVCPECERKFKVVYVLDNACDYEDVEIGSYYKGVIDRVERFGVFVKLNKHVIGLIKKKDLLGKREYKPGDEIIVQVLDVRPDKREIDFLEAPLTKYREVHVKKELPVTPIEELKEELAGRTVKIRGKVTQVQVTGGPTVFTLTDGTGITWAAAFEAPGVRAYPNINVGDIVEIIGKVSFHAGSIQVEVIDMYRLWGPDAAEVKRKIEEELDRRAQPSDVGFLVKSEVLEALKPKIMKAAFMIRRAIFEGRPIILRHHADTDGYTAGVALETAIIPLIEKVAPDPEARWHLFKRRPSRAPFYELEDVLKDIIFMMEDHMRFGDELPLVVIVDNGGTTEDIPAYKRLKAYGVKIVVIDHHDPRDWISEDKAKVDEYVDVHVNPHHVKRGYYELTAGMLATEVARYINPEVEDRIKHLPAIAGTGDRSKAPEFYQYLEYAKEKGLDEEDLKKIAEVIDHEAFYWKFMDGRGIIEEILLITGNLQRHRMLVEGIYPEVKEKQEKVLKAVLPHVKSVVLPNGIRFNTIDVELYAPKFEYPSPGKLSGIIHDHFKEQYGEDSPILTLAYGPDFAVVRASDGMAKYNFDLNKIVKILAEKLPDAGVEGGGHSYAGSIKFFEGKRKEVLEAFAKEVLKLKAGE
In words: EMSA.

For data set [4], the target named is T3, PfuHAN-D4 (Pyrococcus furiosus, UniProt Q8U3Q7 112-740).
T3 sequence: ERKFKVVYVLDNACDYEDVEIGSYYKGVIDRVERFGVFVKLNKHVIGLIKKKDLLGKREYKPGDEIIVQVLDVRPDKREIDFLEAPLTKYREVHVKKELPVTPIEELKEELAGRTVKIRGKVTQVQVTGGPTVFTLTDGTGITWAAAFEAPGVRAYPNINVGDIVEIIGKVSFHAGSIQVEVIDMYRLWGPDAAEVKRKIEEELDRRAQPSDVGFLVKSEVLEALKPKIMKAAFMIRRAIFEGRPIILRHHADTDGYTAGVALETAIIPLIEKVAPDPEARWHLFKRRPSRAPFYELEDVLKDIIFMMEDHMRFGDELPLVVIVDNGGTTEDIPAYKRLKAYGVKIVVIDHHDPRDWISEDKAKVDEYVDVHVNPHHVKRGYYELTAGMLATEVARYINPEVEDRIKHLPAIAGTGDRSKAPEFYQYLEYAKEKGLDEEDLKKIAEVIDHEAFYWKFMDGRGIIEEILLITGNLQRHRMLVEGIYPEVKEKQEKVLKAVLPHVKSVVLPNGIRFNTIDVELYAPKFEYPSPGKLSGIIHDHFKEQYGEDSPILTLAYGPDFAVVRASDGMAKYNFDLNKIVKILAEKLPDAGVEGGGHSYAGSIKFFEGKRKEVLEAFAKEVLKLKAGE
In words: EMSA. A general note: A gel shift assay detects complexes by their altered migration in electrophoresis.

The target in data set [5] is T4, PfuHAN-D1 (Pyrococcus furiosus, UniProt Q8U3Q7 305-740).
T4 sequence: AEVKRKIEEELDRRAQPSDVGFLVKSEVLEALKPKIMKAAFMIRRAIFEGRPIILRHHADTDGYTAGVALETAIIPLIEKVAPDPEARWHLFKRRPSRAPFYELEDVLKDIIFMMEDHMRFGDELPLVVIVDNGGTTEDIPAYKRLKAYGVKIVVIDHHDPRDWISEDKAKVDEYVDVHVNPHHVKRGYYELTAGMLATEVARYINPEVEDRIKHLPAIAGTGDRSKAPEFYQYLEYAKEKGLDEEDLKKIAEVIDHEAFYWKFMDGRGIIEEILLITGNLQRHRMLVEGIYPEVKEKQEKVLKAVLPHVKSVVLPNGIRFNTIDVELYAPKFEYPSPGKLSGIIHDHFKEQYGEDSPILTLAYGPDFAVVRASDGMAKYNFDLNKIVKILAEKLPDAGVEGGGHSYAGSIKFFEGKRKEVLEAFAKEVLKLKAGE
In words: EMSA.

Data set [6] has as its target T5, PfuHAN-D2 (Pyrococcus furiosus, UniProt Q8U3Q7 227-740).
T5 sequence: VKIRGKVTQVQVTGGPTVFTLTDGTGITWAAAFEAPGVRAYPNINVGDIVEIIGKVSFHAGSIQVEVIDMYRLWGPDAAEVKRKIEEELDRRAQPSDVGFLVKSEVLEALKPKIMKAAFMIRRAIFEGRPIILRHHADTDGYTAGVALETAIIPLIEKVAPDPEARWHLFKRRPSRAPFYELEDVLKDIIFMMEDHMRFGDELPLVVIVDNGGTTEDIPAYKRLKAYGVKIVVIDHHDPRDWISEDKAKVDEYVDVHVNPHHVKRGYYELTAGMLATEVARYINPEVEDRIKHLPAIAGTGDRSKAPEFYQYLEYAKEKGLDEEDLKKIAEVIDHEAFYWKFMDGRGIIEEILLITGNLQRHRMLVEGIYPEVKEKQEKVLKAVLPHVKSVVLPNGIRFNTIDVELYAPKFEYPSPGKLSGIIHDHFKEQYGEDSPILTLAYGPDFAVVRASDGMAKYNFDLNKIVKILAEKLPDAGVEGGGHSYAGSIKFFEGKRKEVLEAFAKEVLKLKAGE
Briefly: EMSA.

For data set [7], the target named is T6, PfuHAN wt (Pyrococcus furiosus, UniProt Q8U3Q7 1-740).
T6 sequence: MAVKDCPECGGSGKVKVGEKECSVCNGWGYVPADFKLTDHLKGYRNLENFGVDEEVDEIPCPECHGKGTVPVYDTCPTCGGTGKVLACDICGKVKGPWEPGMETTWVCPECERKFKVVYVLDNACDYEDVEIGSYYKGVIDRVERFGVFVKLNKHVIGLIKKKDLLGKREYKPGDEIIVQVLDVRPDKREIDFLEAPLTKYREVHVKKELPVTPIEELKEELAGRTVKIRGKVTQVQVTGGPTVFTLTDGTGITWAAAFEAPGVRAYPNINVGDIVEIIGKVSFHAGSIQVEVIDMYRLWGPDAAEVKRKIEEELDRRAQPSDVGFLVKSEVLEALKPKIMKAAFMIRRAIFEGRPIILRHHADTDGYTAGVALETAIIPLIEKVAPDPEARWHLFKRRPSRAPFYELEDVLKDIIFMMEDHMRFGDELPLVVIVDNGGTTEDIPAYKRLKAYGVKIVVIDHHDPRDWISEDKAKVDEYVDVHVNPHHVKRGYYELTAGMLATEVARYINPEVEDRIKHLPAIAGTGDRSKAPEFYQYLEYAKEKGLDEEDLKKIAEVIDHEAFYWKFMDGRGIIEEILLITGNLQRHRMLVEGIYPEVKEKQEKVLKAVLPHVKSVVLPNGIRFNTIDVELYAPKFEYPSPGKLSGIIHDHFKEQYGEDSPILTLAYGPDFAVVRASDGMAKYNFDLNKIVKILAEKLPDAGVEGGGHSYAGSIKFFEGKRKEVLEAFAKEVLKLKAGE
Briefly: MST.

Broadly, the stoichiometry N is a count of units in the complex or per binding partner. Turning to PfuHAN_DND E562A (domain or fragment), the stoichiometry N in data set [1] came out at 3.

B1: 42-nt ssDNA (ssDNA)
DNA: AGGCTGCGGTCGAGTTGACAGCACTGCACGCATTACTGAGCT
Consider B1, for which the binding result in data set [2], in data set [3], in data set [4], in data set [5], in data set [6] and in data set [7] was “no binding” throughout.
